Test results: the supplement of paper PMC10065799, “High-throughput profiling of sequence recognition by tyrosine kinases and SH2 domains using bacterial peptide display” (eLife, 2023)

Experiments:
[1] = target: Fyn (UniProt P06241); experiment: phosphorylation enrichment, bacterial display (enrichment ratio); higher = better substrate or ligand; peptides without Tyr show the background
[2] = target: Hck (UniProt P08631); experiment: as above
[3] = target: EPHB2 (UniProt P29323); experiment: as above
Sequence of EPHB2 (P29323 whole entry, looked up): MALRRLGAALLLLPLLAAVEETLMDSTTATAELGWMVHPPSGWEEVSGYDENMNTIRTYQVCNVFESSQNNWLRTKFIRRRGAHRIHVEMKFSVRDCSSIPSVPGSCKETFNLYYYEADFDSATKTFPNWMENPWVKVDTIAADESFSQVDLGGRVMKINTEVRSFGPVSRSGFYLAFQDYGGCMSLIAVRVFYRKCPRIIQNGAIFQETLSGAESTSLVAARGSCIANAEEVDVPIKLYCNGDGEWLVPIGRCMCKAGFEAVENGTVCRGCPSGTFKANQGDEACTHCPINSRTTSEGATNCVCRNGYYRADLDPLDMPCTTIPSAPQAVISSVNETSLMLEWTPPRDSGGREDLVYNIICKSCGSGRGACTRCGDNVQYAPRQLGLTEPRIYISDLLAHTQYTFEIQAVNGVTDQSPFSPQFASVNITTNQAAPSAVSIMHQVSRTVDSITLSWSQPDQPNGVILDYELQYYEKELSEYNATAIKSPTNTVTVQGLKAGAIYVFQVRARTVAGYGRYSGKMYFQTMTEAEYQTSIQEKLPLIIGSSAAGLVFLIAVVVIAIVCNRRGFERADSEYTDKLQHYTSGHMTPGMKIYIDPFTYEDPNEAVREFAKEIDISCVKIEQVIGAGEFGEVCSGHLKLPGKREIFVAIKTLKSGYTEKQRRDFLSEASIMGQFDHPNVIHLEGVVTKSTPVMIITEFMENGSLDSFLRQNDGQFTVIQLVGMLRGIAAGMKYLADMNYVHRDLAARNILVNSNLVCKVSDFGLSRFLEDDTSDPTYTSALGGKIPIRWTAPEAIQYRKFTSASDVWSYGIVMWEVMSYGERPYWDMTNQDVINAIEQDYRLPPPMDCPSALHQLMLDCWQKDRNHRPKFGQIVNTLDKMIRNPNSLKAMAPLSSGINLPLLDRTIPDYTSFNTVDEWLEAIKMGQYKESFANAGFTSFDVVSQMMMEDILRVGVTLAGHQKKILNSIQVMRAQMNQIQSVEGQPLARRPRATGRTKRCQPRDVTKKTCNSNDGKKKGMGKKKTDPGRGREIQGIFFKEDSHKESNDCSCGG

[4] = test system: c-Src; experiment: as above
[5] = target: Fes (UniProt P07332); experiment: as above
Sequence of Fes (P07332 whole entry, looked up): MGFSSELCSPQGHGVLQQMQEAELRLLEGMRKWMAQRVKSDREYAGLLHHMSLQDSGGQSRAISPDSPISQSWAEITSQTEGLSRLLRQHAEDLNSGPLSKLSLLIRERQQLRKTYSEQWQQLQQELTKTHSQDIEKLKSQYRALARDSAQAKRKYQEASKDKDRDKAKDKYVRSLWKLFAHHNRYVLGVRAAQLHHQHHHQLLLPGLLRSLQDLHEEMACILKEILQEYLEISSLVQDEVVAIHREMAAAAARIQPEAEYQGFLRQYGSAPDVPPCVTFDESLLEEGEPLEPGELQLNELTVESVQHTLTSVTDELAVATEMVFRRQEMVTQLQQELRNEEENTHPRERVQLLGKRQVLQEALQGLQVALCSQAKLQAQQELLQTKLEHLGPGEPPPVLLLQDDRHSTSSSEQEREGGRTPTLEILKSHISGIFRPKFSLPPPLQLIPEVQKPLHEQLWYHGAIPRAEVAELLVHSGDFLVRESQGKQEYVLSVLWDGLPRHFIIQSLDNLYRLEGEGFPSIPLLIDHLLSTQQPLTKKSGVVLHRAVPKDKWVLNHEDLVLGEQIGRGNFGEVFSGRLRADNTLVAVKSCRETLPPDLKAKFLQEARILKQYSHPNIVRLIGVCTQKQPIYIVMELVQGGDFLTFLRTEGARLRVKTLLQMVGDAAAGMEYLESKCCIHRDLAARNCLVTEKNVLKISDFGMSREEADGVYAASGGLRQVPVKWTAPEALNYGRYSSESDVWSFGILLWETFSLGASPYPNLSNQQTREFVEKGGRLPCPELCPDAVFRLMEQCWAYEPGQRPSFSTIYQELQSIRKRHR

[6] = target: MERTK (UniProt Q12866); experiment: as above
[7] = target: EPHB1 (UniProt P54762); experiment: as above
Sequence of EPHB1 (P54762 whole entry, looked up): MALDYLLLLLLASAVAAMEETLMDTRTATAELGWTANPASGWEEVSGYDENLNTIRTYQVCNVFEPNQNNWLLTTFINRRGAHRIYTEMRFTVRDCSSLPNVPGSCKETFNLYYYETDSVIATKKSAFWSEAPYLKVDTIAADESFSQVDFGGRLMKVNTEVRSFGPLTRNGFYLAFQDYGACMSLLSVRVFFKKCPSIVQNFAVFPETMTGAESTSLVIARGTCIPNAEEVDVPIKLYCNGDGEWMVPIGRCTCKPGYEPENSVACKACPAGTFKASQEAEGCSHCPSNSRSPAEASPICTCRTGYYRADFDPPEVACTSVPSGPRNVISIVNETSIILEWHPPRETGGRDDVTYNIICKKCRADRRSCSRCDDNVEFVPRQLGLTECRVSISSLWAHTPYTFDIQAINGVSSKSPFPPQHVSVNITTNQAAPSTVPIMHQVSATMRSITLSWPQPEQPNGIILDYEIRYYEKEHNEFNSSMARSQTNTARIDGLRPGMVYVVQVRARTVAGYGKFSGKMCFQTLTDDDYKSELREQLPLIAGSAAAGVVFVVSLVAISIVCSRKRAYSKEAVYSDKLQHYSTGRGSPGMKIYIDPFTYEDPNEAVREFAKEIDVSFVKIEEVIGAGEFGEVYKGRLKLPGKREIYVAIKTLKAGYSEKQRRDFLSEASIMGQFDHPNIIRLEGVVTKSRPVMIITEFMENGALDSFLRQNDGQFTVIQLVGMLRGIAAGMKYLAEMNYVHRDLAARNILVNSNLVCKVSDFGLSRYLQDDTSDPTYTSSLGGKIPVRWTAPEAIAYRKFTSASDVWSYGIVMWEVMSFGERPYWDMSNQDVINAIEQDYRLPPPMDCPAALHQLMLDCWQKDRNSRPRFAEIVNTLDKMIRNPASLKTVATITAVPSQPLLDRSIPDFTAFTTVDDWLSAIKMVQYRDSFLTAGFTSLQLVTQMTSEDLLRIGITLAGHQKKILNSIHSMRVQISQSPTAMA

[8] = test system: Fer (mouse); experiment: as above
[9] = target: FGFR3 (UniProt P22607); experiment: as above
Sequence of FGFR3 (P22607 whole entry, looked up): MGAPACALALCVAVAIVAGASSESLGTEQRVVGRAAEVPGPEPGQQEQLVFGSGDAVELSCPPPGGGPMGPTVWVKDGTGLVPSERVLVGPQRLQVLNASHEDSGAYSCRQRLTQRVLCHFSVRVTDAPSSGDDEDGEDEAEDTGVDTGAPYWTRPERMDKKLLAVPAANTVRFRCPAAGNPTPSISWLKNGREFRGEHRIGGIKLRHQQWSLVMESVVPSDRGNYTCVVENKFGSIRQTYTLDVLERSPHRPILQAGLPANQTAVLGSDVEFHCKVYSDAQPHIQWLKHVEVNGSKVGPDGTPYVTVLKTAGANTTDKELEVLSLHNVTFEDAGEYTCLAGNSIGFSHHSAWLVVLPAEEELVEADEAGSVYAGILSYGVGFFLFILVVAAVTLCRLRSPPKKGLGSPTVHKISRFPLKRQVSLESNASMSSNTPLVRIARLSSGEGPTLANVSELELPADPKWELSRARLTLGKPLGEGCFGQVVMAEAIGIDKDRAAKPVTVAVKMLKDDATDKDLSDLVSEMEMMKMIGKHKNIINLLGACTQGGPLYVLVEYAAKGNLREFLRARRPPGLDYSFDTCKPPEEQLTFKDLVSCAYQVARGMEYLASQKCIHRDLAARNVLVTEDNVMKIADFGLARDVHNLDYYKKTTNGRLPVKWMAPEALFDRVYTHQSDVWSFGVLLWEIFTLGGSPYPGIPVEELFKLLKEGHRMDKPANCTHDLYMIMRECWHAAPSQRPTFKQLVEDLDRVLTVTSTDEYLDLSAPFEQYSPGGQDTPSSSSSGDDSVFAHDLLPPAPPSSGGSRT

[10] = target: FGFR1 (UniProt P11362); experiment: as above
Sequence of FGFR1 (P11362 whole entry, looked up): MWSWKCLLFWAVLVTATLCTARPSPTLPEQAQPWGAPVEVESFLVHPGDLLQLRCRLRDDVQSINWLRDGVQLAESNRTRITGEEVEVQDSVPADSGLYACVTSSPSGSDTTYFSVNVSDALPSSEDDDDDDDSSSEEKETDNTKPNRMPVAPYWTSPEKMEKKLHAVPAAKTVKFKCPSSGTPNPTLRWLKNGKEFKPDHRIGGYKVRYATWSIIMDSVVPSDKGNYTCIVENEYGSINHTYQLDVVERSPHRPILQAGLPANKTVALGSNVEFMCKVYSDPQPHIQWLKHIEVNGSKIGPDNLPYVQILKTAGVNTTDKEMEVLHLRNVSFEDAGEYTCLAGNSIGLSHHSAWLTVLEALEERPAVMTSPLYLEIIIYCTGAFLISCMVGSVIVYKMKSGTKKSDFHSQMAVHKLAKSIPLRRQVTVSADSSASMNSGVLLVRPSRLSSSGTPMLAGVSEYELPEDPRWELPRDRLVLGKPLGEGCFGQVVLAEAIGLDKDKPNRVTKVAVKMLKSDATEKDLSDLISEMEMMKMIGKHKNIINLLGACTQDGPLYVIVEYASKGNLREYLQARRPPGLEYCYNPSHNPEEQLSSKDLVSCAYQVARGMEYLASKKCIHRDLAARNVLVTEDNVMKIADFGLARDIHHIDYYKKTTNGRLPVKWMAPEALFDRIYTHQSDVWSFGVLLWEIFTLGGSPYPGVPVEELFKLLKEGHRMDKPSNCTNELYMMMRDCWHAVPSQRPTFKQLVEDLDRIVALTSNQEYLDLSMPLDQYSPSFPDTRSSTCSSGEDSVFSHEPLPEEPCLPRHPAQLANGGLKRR

[11] = target: Jak2 (UniProt O60674); experiment: as above
[12] = test system: c-Abl (mouse); experiment: as above
[13] = test system: AncSZ; experiment: as above
[14] = target: SHP2-C SH2; experiment: SH2 binding enrichment of the phosphorylated peptide, bacterial display (enrichment ratio); higher = better substrate or ligand; peptides without Tyr show the background
[15] = target: Grb2 SH2 (UniProt P62993); experiment: as above
[16] = target: c-Src SH2; experiment: as above
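Throughout, for SH2 binding enrichment of the phosphorylated peptide, bacterial display: peptide library displayed on the E. coli surface as eCPX fusions, selected cells deep-sequenced, score is each peptide's frequency after selection divided by its frequency in the input.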
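Throughout, for phosphorylation enrichment, bacterial display: 11-residue human phosphosite peptides and single-mutation variants displayed on the E. coli surface, counted by deep sequencing, each peptide's frequency after selection divided by its frequency in the unselected input library; frequency after pTyr selection over input frequency; kinase dosed for 20-30% of maximal phosphorylation in three min.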

Sequence of Hck (P08631 whole entry, looked up): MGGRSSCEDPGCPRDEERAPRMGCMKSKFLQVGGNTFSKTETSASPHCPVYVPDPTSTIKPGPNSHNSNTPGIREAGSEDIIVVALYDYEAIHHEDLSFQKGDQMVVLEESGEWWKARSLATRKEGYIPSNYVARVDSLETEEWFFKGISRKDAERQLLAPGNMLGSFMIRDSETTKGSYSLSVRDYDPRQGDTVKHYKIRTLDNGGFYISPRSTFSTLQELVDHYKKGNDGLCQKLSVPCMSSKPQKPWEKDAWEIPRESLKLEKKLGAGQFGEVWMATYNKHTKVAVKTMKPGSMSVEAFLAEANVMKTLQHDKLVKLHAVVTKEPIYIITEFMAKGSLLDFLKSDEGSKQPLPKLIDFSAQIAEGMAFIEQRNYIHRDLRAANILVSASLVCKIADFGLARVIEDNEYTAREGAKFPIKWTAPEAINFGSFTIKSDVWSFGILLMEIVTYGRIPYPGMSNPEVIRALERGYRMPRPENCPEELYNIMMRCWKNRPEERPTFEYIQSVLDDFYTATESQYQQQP

| Sequence | SH2 binding enrichment [14] | SH2 binding enrichment [15] | SH2 binding enrichment [16] | phosphorylation enrichment [1] | phosphorylation enrichment [2] | phosphorylation enrichment [3] | phosphorylation enrichment [4] | phosphorylation enrichment [5] | phosphorylation enrichment [6] | phosphorylation enrichment [7] | phosphorylation enrichment [8] | phosphorylation enrichment [9] | phosphorylation enrichment [10] | phosphorylation enrichment [11] | phosphorylation enrichment [12] | phosphorylation enrichment [13] |
| --- | --- | --- | --- | --- | --- | --- | --- | --- | --- | --- | --- | --- | --- | --- | --- | --- |
| PPAPRYHHSAV [LZTR1_Y119] | 1.1 | 1.31 | 1.07 | 0.457 | 0.717 | 0.44 | 0.384 | 1.26 | 0.351 | 0.432 | 0.587 | 0.79 | 0.38 | 0.781 | 0.677 | 0.655 |
| PTTKTYFPHFY [HBA1_Y43_D48Y] | 1.25 | 0.771 | 0.73 | 0.884 | 0.535 | 0.735 | 0.56 | 0.873 | 0.508 | 0.46 | 0.825 | 1.14 | 0.628 | 0.974 | 0.785 | 0.782 |
| VTSLKYSTSPY [BRIP1_Y916] | 0.42 | 0.754 | 0.43 | 0.523 | 0.516 | 0.498 | 0.542 | 0.655 | 0.493 | 0.52 | 0.451 | 0.467 | 0.487 | 0.6 | 0.537 | 0.751 |
| MNLLGYRHVRS [CHST4_Y359] | 0.748 | 0.855 | 0.545 | 0.403 | 0.488 | 0.461 | 0.405 | 0.738 | 0.4 | 0.423 | 0.409 | 0.466 | 0.612 | 0.691 | 0.663 | 0.761 |
| KTTILHKLKLG [ARF1_Y35_Y35H] | 1.24 | 1.5 | 1.46 | 0.333 | 0.39 | 0.509 | 0.326 | 0.739 | 0.35 | 0.4 | 0.435 | 0.518 | 0.439 | 0.548 | 0.591 | 0.584 |
| AAARPYHIQKW [ACSBG1_Y677] | 1.27 | 1.41 | 1.19 | 0.371 | 0.543 | 0.465 | 0.62 | 0.675 | 0.377 | 0.468 | 0.279 | 0.584 | 0.462 | 0.682 | 0.673 | 0.601 |
| KSLSQYLEMDK [CAGE1_Y438_V435L] | 0.837 | 0.709 | 1.4 | 0.445 | 0.415 | 0.483 | 0.4 | 0.836 | 0.446 | 0.382 | 0.348 | 0.487 | 0.545 | 0.797 | 0.56 | 0.793 |
| TLQTMYGCDVG [HLA-B_Y123_S121T] | 0.729 | 0.854 | 0.545 | 0.554 | 0.579 | 0.589 | 0.68 | 1.15 | 0.647 | 0.909 | 0.838 | 0.772 | 0.556 | 0.979 | 0.849 | 1.13 |
| ARVDTYCRHNF [HLA-DRB1_Y107_A103R_YF] | 0.743 | 1.01 | 0.757 | 0.439 | 0.45 | 0.494 | 0.496 | 0.992 | 0.486 | 0.41 | 0.433 | 0.53 | 0.443 | 0.731 | 0.677 | 0.7 |
| VEDQFYCVDCF [FHL1_Y208_YF] | 1.64 | 1.71 | 1.32 | 1.44 | 0.926 | 0.697 | 1.73 | 1.29 | 5.12 | 0.748 | 0.874 | 0.863 | 0.703 | 1.35 | 0.867 | 1.61 |
| STAPSYGNPSS [CD19_Y378_G373S] | 0.694 | 0.744 | 0.458 | 0.383 | 0.34 | 0.357 | 0.381 | 0.505 | 0.402 | 0.328 | 0.32 | 0.358 | 0.361 | 0.503 | 0.482 | 0.545 |
| APQYTYAQGGQ [FLNA_Y1763] | 1.26 | 0.778 | 2.62 | 0.486 | 0.509 | 0.43 | 0.455 | 0.643 | 0.486 | 0.373 | 0.409 | 0.53 | 0.453 | 0.54 | 0.54 | 0.72 |
| KFMVGYEMLAQ [GALT_Y339] | 0.892 | 1.33 | 3.23 | 0.417 | 0.526 | 0.504 | 0.382 | 0.897 | 0.343 | 0.519 | 0.511 | 0.697 | 0.553 | 0.833 | 0.622 | 0.88 |
| CDTKLYTSVPN [DNTTIP2_Y427_A430V] | 0.48 | 0.728 | 1.22 | 0.655 | 1.01 | 0.77 | 0.849 | 1.12 | 1.5 | 1.11 | 1.27 | 0.797 | 0.62 | 0.842 | 0.755 | 0.96 |
| QLFGAYLRIHA [BSCL2_Y213_YF] | 0.952 | 1.28 | 0.972 | 0.784 | 1.02 | 0.915 | 0.559 | 2.12 | 0.599 | 1.17 | 0.837 | 2.28 | 0.928 | 1.37 | 0.744 | 1.49 |
| SPFEVYVDKSQ [FLNA_Y373] | 0.697 | 1.02 | 0.685 | 0.477 | 0.499 | 0.515 | 0.481 | 1.27 | 0.388 | 0.669 | 0.499 | 0.726 | 0.493 | 0.99 | 0.581 | 1.08 |
| PCLLRYLQLDF [ASB10_Y457_R453C] | 1.26 | 1.12 | 1.26 | 0.497 | 0.783 | 0.538 | 0.502 | 1.72 | 0.733 | 0.833 | 0.968 | 1.14 | 1.18 | 1.51 | 1.12 | 1.5 |

Continued, in another order:

| SH2 binding enrichment [14] | SH2 binding enrichment [15] | SH2 binding enrichment [16] | Sequence | phosphorylation enrichment [1] | phosphorylation enrichment [2] | phosphorylation enrichment [3] | phosphorylation enrichment [4] | phosphorylation enrichment [5] | phosphorylation enrichment [6] | phosphorylation enrichment [7] | phosphorylation enrichment [8] | phosphorylation enrichment [9] | phosphorylation enrichment [10] | phosphorylation enrichment [11] | phosphorylation enrichment [12] | phosphorylation enrichment [13] |
| --- | --- | --- | --- | --- | --- | --- | --- | --- | --- | --- | --- | --- | --- | --- | --- | --- |
| 0.872 | 0.965 | 0.644 | HLAQRYLIWEC [SCN5A_Y694_R689H] | 0.953 | 0.79 | 0.944 | 0.503 | 1.65 | 0.533 | 1.03 | 0.616 | 1.26 | 0.788 | 1.02 | 0.929 | 1.62 |
| 0.698 | 0.825 | 0.575 | GRPMDYHVSIT [OTOF_Y254_Q255H] | 0.456 | 0.479 | 0.453 | 0.4 | 0.923 | 0.414 | 0.532 | 0.559 | 0.577 | 0.453 | 0.83 | 0.626 | 0.732 |
| 1.01 | 1.01 | 0.842 | RLNWIYFKDQT [RS1_Y165_YF] | 0.757 | 1.02 | 0.918 | 0.855 | 2.3 | 0.49 | 1.08 | 0.774 | 1.35 | 1.17 | 2.15 | 1.35 | 2.98 |
| 0.844 | 0.876 | 0.491 | RASSSYRETPS [SORBS1_Y79] | 0.655 | 0.502 | 0.337 | 0.775 | 0.659 | 0.644 | 0.361 | 0.513 | 0.68 | 0.611 | 1.49 | 0.757 | 0.681 |
| 0.774 | 0.895 | 0.495 | PSSRDYKHNIK [PIGN_Y227] | 0.456 | 0.474 | 0.47 | 0.417 | 0.572 | 0.463 | 0.321 | 0.569 | 0.587 | 0.448 | 0.481 | 0.471 | 0.442 |
| 0.722 | 1.02 | 0.881 | LARDIYKNDYY [ROS1_Y2110] | 0.854 | 0.712 | 0.782 | 1.42 | 0.828 | 0.426 | 0.953 | 0.369 | 2.19 | 3.15 | 0.752 | 0.462 | 1.1 |
| 0.796 | 0.925 | 0.583 | LFDHIYTTQSD [RET_Y928] | 7.45 | 5.93 | 2 | 4.92 | 3.19 | 1.96 | 1.28 | 6.22 | 3.56 | 2.9 | 1.81 | 0.821 | 2.46 |
| 2 | 1.18 | 0.696 | TNYCLYLRSLE [MTM1_Y71_R69C] | 0.545 | 0.668 | 1.52 | 0.887 | 1.46 | 1.19 | 1.93 | 0.614 | 1 | 0.814 | 1.29 | 0.883 | 1.67 |
| 0.704 | 0.711 | 1.55 | HLLRIYYDITD [MMP27_Y307_W304L] | 1.07 | 0.891 | 1.99 | 1.66 | 2.15 | 0.88 | 1.93 | 1.23 | 2.33 | 2.49 | 1.91 | 1.63 | 1.46 |
| 0.525 | 0.761 | 2.26 | YEDTLYTVLHR [UNC13D_Y61_A59T] | 7.58 | 8.16 | 9.31 | 6.38 | 1.41 | 8.84 | 12.2 | 9.1 | 2.09 | 2.08 | 1.39 | 3.32 | 2.9 |
| 0.808 | 0.79 | 1.26 | SVVVPYEAPEV [TP53_Y220_P222A] | 0.442 | 0.492 | 0.485 | 0.405 | 1.01 | 0.969 | 0.649 | 0.546 | 0.8 | 0.483 | 0.998 | 0.79 | 1.2 |
| 0.789 | 0.724 | 0.738 | DVMDLYKTLRG [NR3C1_Y30_F29L] | 0.437 | 0.904 | 0.535 | 0.421 | 0.776 | 0.431 | 0.483 | 0.381 | 0.861 | 0.585 | 0.517 | 0.521 | 0.773 |
| 0.974 | 0.908 | 0.602 | LIPIKYKAMKK [MYD88_Y257] | 0.489 | 0.342 | 0.384 | 0.302 | 0.96 | 0.413 | 0.55 | 0.405 | 0.92 | 0.755 | 0.297 | 0.325 | 0.388 |
| 0.677 | 0.75 | 0.544 | RLDRSYSFSFS [PEAR1_Y890_YF] | 0.702 | 0.791 | 0.48 | 0.575 | 0.984 | 0.62 | 0.783 | 0.809 | 0.607 | 0.738 | 0.816 | 0.593 | 1.06 |
| 1.4 | 1.06 | 1.03 | AGREIYESDKC [TTN_Y4424] | 0.538 | 0.523 | 0.607 | 0.536 | 0.996 | 0.447 | 0.524 | 0.519 | 0.819 | 0.608 | 0.731 | 0.616 | 0.949 |
| 0.426 | 0.772 | 17.2 | TETGRYEILTE | 0.387 | 0.517 | 0.466 | 0.44 | 0.765 | 0.421 | 0.532 | 0.354 | 0.427 | 0.543 | 0.658 | 0.389 | 0.742 |
